The record followed here is patent publication US20060094649A1.

For one experiment, the target named is HLA-B*4403 (human). Put plainly: competition with labeled probe peptide, purified HLA class I.
In a further experiment the target is HLA-B*4001 (human). The description is as above.

By IC50 is commonly meant the concentration needed to halve the response being measured. Read a high IC50 as lower potency. Regarding “SEQ ID NO 717, 7-mer of MAGE2 at position 234 (printed as WEELSML) (peptide)”, the IC50 in the experiment with HLA-B*4403 (human) amounted to 2.01 µM; in the experiment with HLA-B*4001 (human), 10.4 µM.
